The values that follow come from US7470669B2, “Isolated polypeptide comprising a leptin fragment” (Serono Genetics Institute, S.A., priority 1999, dated 2008).

Data set [1] relates to LSR mRNA. Description: Northern analysis of LSR mRNA in PLC cells preincubated 24 h with leptin. It is filed as cell-based, human. The following applies: preincubated 24 h with 200-400 ng/mL leptin. Here is the method:
FIGS. 35A and 35B show graphs of LSR activity and mRNA expression measured in PLC cells preincubated 24 h with leptin. In FIG. 35A, PLC monolayers were incubated 24 h at 37° C. with (o) or without (n) 200 ng/mL human recombinant leptin. After washing with PBS, cells were incubated 30 min at 37° C. with increasing concentrations of human leptin, followed by a 2 h incubation at 37° C. with 0.8 mM oleate and 20 μg/mL ^125I-LDL. Cells were washed, and the amount of oleate-induced ^125I-LDL binding was measured as described previously. Results are shown as the mean of triplicate determinations. In FIG. 35B, PLC monolayers were incubated 24 h at 37° C. with 0, 200, or 400 ng/mL human recombinant leptin. After washing with PBS, the cells were harvested. Total RNA was prepared from the cell pellets, and Northerns were performed to detect LSR mRNA, using GAPDH probe as loading control as described previously. Northern blots were scanned on the Phosphorimager (Molecular Dynamics, Sunnyvale, Calif.). Densitometric analysis of the images was performed using the software ImageQuant. Results are shown as the amount of LSR signal relative to that of GAPDH (mean±SD, n=3/condition). […]

Data set [2] concerns the target T1, Ob-R (Mus musculus, UniProt P48356).
T1 sequence (P48356 22-894 isoform P48356-2 limits assumed): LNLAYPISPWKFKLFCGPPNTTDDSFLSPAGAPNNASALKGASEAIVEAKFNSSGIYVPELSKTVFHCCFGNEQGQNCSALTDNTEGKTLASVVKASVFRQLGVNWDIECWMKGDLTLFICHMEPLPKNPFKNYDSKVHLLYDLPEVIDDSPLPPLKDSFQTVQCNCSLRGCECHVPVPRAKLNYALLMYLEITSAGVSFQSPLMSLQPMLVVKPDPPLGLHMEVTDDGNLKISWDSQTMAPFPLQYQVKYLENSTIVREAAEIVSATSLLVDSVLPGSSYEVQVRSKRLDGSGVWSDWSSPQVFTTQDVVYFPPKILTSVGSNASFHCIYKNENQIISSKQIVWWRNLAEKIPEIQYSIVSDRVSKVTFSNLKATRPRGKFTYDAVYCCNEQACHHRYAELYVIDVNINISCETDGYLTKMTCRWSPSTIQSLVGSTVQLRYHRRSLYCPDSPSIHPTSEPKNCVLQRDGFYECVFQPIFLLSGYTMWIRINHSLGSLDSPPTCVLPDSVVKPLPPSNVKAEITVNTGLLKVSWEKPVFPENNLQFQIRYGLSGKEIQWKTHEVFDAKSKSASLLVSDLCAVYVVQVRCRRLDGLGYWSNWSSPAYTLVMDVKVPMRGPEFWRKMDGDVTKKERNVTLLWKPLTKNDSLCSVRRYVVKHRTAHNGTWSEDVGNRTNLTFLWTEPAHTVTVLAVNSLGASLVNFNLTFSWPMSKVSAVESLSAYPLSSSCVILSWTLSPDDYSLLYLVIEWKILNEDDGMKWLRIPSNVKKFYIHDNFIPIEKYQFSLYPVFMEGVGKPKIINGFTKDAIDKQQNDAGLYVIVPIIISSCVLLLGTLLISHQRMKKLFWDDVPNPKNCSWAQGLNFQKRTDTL
The following applies: Tartaglia et al, 1995; cited from earlier work.

Data set [3] deals with lipase. Description: Postheparin lipolytic activity in db^Pas/db^Pas mice. The following applies: 50 μg/animal, t=2 h after test meal. It is filed as in vivo, mouse. Here is the method: FIG. 12 contains a Table that presents results showing the effect of test meal with and without leptin injection on postheparin lipolytic activity in db^Pas/db^Pas mice. Animals were gavaged with the test-meal and injected at the same time with 50 μg leptin or physiological saline as described previously (t=0 h). After 1 h, the mice were injected with heparin and blood samples were taken at the peak of postprandial triglyceridemia (t=2 h). Lipase activity was measured in the postheparin plasma as described in the Examples section herein, and is reported here as the mean±SEM (n=3 animals for each condition; ns=not significant).
Mice were gavage-fed and injected with leptin or control solutions as described above. At t=1 h, the mice were injected subcutaneously with heparin (100 IU/kg body weight). At t=2 h, the animals were bled and the plasma was immediately separated by centrifugation. Lipase activity was determined according to Iverius and Brunzell (1985) using 20% Lipoven (Fresenius France Pharma, Louviers, France) as the source of TG. The assay was performed using 25 μL postheparin plasma in 0.15 M NaCl (200 μL total volume), and in the presence of 10 μL heat-inactivated (56° C., 30 min) human plasma as a source of apoC's. Before and at the end of the incubation, FFA concentrations were determined using an enzymatic kit.

Data set [4] addresses LRP (Homo sapiens, UniProt Q07954). As to the kind of experiment: Degradation of activated α2-macroglobulin (LRP ligand). The following applies: leptin up to 2 μg/mL. It is filed as cell-based.

Chain of LRP (Q07954 20-4544): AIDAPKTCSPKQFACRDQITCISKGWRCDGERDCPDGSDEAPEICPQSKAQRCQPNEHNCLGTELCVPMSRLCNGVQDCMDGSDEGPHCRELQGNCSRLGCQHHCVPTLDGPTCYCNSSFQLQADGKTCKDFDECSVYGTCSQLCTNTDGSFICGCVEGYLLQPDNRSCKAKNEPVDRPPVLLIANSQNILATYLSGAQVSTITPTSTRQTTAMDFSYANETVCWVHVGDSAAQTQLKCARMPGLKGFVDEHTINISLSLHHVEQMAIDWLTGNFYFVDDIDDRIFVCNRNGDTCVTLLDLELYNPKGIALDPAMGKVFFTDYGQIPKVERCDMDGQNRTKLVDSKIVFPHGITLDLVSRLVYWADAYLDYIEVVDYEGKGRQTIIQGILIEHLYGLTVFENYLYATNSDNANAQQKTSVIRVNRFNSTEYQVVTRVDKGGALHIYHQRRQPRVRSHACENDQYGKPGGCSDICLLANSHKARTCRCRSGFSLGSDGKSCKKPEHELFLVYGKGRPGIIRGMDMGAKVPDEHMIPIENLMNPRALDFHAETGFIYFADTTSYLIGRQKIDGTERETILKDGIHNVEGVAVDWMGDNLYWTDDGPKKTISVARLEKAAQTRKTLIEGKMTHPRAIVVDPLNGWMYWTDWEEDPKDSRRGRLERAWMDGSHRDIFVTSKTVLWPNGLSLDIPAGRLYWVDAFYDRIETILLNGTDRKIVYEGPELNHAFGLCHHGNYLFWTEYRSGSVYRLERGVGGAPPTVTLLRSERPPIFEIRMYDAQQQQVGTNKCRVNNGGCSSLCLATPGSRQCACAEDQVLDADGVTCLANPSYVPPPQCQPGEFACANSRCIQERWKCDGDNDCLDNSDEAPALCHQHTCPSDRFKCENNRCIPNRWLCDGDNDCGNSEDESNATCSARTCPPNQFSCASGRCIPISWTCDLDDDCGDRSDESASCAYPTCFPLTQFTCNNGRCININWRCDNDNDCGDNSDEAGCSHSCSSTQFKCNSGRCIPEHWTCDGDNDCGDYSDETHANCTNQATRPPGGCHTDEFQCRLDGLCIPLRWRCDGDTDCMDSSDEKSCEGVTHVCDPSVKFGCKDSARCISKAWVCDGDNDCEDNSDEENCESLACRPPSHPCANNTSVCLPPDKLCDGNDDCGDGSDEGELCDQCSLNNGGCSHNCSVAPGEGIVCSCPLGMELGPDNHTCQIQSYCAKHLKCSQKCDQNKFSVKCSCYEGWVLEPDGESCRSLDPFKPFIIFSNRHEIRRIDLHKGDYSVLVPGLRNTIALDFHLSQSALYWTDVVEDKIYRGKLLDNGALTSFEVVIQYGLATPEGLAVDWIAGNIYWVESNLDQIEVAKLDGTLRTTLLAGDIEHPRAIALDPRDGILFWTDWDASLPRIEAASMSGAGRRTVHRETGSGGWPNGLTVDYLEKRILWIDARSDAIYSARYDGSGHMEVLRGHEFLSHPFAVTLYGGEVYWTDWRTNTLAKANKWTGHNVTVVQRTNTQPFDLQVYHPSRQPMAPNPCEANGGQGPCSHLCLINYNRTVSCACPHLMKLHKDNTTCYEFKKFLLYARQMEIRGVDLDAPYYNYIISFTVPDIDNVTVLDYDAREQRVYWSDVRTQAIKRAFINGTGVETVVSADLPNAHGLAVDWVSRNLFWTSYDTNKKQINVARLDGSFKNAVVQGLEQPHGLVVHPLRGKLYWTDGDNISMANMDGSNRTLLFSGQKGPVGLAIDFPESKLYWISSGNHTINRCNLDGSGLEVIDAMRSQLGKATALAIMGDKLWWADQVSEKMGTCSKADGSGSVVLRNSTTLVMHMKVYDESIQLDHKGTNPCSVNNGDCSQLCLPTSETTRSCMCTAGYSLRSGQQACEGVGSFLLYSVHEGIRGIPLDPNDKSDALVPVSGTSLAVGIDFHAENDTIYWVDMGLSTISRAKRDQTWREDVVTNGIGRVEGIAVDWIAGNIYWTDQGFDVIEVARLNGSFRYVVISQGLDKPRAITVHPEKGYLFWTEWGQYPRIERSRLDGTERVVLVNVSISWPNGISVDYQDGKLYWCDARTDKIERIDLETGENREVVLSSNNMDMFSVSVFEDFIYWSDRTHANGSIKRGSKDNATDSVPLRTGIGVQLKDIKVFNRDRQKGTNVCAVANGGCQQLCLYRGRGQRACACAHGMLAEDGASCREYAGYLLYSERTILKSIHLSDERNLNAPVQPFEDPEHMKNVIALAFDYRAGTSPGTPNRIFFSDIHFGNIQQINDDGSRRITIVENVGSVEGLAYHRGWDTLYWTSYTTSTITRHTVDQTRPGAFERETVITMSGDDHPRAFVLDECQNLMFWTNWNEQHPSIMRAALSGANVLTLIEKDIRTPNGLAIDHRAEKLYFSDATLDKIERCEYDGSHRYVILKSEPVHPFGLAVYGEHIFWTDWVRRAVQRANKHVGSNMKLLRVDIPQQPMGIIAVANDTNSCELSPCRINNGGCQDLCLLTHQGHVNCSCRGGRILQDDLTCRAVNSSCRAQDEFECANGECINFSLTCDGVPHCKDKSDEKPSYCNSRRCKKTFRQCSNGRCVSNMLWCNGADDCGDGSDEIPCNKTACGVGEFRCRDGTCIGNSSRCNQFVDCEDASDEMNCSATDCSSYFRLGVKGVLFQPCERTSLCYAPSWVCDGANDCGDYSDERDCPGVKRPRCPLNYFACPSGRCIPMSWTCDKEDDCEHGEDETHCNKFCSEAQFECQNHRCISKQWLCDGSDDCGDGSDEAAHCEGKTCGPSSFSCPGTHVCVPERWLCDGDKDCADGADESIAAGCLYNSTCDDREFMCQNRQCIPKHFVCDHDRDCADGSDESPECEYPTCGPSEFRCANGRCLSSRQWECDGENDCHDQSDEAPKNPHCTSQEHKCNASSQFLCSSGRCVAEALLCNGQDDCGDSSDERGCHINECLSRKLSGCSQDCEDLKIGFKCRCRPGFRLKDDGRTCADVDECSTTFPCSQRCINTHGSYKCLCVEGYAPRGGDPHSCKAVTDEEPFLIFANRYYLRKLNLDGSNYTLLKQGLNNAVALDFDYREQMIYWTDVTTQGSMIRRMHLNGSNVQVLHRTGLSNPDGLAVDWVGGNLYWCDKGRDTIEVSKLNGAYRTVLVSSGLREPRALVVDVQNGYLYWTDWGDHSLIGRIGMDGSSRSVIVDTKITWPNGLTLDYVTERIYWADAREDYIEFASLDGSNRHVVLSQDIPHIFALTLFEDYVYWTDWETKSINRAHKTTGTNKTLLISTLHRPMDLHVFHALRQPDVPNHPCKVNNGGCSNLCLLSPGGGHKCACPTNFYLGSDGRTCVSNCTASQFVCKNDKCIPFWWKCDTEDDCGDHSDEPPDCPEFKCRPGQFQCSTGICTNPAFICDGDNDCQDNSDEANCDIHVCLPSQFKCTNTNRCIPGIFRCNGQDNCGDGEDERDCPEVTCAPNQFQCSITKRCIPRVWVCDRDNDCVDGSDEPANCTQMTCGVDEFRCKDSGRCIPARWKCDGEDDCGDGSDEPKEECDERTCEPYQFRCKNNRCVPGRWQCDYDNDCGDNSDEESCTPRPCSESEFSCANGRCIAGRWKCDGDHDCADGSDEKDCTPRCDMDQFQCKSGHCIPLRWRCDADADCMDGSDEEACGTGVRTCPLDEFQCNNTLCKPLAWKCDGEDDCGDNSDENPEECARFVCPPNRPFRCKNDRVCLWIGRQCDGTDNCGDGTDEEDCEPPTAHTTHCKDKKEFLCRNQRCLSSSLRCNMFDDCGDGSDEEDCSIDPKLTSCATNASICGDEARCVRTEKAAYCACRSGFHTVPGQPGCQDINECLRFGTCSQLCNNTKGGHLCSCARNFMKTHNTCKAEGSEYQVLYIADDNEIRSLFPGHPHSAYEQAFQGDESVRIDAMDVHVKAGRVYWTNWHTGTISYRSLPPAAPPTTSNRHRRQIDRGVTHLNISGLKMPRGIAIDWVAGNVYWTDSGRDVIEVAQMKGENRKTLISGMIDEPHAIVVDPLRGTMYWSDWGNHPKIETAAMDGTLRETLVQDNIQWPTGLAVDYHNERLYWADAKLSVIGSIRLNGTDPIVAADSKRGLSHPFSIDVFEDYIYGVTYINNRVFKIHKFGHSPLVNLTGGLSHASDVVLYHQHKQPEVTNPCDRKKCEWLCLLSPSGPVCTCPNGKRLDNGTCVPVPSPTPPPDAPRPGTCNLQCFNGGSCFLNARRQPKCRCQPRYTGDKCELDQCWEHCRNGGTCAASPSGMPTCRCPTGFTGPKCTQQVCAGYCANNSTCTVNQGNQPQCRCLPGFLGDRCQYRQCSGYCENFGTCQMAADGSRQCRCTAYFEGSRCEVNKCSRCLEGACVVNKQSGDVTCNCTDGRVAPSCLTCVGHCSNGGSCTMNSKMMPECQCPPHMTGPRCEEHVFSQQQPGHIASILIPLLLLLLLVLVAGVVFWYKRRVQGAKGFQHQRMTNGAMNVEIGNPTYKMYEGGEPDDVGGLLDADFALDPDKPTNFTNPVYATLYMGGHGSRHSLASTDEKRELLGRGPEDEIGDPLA

Consider “leptin: plasma protein of 16 kDa produced by adipocytes; recombinant human or mouse leptin, species depends on the experiment”, for which the “decrease of hepatocyte LSR mRNA relative to GAPDH” value in data set [1] is given as 25-35%. In addition, the dissociation constant Kd in data set [2] was 0.7 nM. Also, the “lipase activity released in serum after heparin injections” value in data set [3] is “did not significantly modify lipase activity”. For the same substance, the “degradation of activated α2-macroglobulin, the preferred LRP ligand” value in data set [4] is given as “no detectable effect”.

The Kd is the concentration at which binding is half-saturated.
